{
  "source": "patent US20130210673A1",
  "about": "(published 2013)",
  "data": [
    {"molecular_target": "T1, streptavidin (UniProt P22629 37-163, limits assumed)", "T1 construct": "Used as streptavidin-phycoerythrin in flow cytometry and as coated beads for YFP-SA-1; also called SA; streptavidin-phycoerythrin", "T1 sequence (P22629 37-163 limits assumed)": "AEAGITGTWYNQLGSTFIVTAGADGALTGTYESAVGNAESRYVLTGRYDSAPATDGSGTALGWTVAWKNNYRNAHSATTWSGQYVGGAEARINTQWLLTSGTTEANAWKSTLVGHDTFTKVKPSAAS", "experiment": "flow cytometry, equilibrium", "method": "The corresponding mean fluorescence versus concentration data were fit to a monovalent binding isotherm to obtain the apparent KD. Dissociation rates of streptavidin-binding clones were measured in the presence of about 1 to about 2 μM biotin. Cells were labeled with 50 nM streptavidin-phycoerythrin for 30 minutes at room temperature. The cells were then pelleted, resuspended in PBS with biotin, and immediately analyzed by flow cytometry. Fluorescence data were collected continuously for about five minutes. The dissociation rate constants were then determined as described previously. See Daugherty, P. S., et al. (1998) Protein Eng. 11(9):825-832, which is herein incorporated by reference.", "values": [
      {"binder": "ICSYVMYTTCFLRVY (insert only)", "note": "[SEQ ID NO 234]", "binding result": "binds"},
      {"binder": "TVLICMNICWTGETQ (insert only)", "note": "[SEQ ID NO 233]", "binding result": "binds"},
      {"binder": "RLEICQNVCYYLGTL (insert only)", "note": "[SEQ ID NO 232]", "binding result": "binds"}
    ]},
    {"molecular_target": "T1, streptavidin", "experiment": "bacterial display selection", "values": [
      {"binder": "LPVWCVMHVCLTSSR (insert only)", "note": "[SEQ ID NO 239]", "binding result": "binds"},
      {"binder": "TVLICMNICWTGETQ (insert only)", "note": "[SEQ ID NO 236]", "binding result": "binds"},
      {"binder": "TWVQCTMVCYGMSTT (insert only)", "note": "[SEQ ID NO 242]", "binding result": "binds"},
      {"binder": "IMMECFYVCTIANTQ (insert only)", "note": "[SEQ ID NO 245]", "binding result": "binds"},
      {"binder": "RLEICQNVCYYLGTL (insert only)", "note": "[SEQ ID NO 235]", "binding result": "binds"},
      {"binder": "YWVCMNVCMYYTARQ (insert only)", "note": "[SEQ ID NO 238]", "binding result": "binds"},
      {"binder": "ICSYVMYTTCFLRVY (insert only)", "note": "[SEQ ID NO 237]", "binding result": "binds"},
      {"binder": "NEWYCQNVCERMPHS (insert only)", "note": "[SEQ ID NO 241]", "binding result": "binds"},
      {"binder": "ADTICWYVCTISVHA (insert only)", "note": "[SEQ ID NO 244]", "binding result": "binds"}
    ]},
    {"molecular_target": "T2, human C-reactive protein (human, UniProt P02741 19-224, biotinylated or conjugated to AlexaFluor488 for labeling)", "T2 construct": "Bought protein; also called CRP; C-RP", "T2 sequence (looked up)": "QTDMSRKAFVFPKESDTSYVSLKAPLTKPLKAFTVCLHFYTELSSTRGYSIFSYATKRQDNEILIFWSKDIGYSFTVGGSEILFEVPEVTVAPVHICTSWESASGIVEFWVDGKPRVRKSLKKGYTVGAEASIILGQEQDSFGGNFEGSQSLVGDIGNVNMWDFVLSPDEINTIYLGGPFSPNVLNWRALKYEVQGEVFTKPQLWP", "experiment": "bacterial display selection", "values": [
      {"binder": "YPPRFQYYRFYYRGP (insert only)", "note": "[SEQ ID NO 247]", "binding result": "binds"},
      {"binder": "EWACNDRGFNCQLQR (insert only)", "note": "[SEQ ID NO 255]", "binding result": "binds"},
      {"binder": "FPIYNQRGFITLASP (insert only)", "note": "[SEQ ID NO 256]", "binding result": "binds"},
      {"binder": "MIFNSRGFLSLMSSG (insert only)", "note": "[SEQ ID NO 253]", "binding result": "binds"}
    ]}
  ]
}
